Laboratory results as given in article PMC6602975.

What was measured:
Test in all cases: EMSA
[1] = tested on: Orc1 BAH A2P (Saccharomyces cerevisiae); details: 10 mM Tris pH 7.5, 50 mM NaCl, 2.5% glycerol, 1 mM DTT, room temperature 30 min; 25 or 50 nM nucleosome; native PAGE 0.2x TBE
[2] = tested on: Orc1 BAH E95K (Saccharomyces cerevisiae); details: apparent Kd; 10 mM Tris pH 7.5, 50 mM NaCl, 2.5% glycerol, 1 mM DTT, room temperature 30 min; 25 or 50 nM nucleosome; native PAGE 0.2x TBE
[3] = tested on: Orc1 BAH L79I (Saccharomyces cerevisiae); details: 10 mM Tris pH 7.5, 50 mM NaCl, 2.5% glycerol, 1 mM DTT, room temperature 30 min; 25 or 50 nM nucleosome; native PAGE 0.2x TBE
[4] = tested on: Orc1 BAH Lid swap (Saccharomyces cerevisiae); details: 10 mM Tris pH 7.5, 50 mM NaCl, 2.5% glycerol, 1 mM DTT, room temperature 30 min, 25 or 50 nM nucleosome, native PAGE 0.2x TBE
[5] = tested on: Orc1 BAH Q205D (Saccharomyces cerevisiae); details: apparent Kd; 10 mM Tris pH 7.5, 50 mM NaCl, 2.5% glycerol, 1 mM DTT, room temperature 30 min; 25 or 50 nM nucleosome; native PAGE 0.2x TBE
[6] = tested on: Orc1 BAH R202E (Saccharomyces cerevisiae); details: 10 mM Tris pH 7.5, 50 mM NaCl, 2.5% glycerol, 1 mM DTT, room temperature 30 min; 25 or 50 nM nucleosome; native PAGE 0.2x TBE
[7] = tested on: T1, Orc1 BAH WT (Saccharomyces cerevisiae); details: apparent Kd, 10 mM Tris pH 7.5, 50 mM NaCl, 2.5% glycerol, 1 mM DTT, room temperature 30 min, 25 or 50 nM nucleosome, native PAGE 0.2x TBE
T1 sequence: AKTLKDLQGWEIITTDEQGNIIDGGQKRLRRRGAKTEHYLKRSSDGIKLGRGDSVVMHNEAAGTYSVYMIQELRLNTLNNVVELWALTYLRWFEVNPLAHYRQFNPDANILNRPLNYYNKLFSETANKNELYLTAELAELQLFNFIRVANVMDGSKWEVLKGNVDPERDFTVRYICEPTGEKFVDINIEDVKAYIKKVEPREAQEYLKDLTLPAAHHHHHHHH

[8] = tested on: Sir3 BAH D205N (Saccharomyces cerevisiae); details: apparent Kd, 10 mM Tris pH 7.5, 50 mM NaCl, 2.5% glycerol, 1 mM DTT, room temperature 30 min, 25 or 50 nM nucleosome, native PAGE 0.2x TBE
[9] = tested on: Sir3 BAH D205Q (Saccharomyces cerevisiae); details: apparent Kd, 10 mM Tris pH 7.5, 50 mM NaCl, 2.5% glycerol, 1 mM DTT, room temperature 30 min, 25 or 50 nM nucleosome, native PAGE 0.2x TBE
[10] = tested on: Sir3 BAH Lid D205Q (Saccharomyces cerevisiae); details: apparent Kd, 10 mM Tris pH 7.5, 50 mM NaCl, 2.5% glycerol, 1 mM DTT, room temperature 30 min, 25 or 50 nM nucleosome, native PAGE 0.2x TBE
[11] = histone H4 K16ac (genetically encoded), DNA unmodified

WT nucleosome (147 bp 601, unmodified)
Kd [1]: 1900 nM | Kd [2]: 4400 nM | Kd [3]: 400 nM | Kd [4]: 700 nM | Kd ([4]; apparent Kd, comparison set with H4K16ac): 600 nM | Kd [5]: 5100 nM | binding signal (fold decrease in affinity vs Orc1 WT) [6]: 4.9 | Kd [7]: 1300 nM | Kd ([7]; reference set for mutants): 1100 nM | Kd [8]: 220 nM | Kd [9]: 300 nM | Kd [10]: 1000 nM

H4K16ac nucleosome (147 bp 601)
Kd ([4]; apparent Kd, histone H4 K16ac (genetically encoded), DNA unmodified): 3700 nM | Kd [7, 11]: 1500 nM | Kd [8, 11]: 810 nM | Kd [9, 11]: 1200 nM | Kd [10, 11]: 1700 nM

H4K16Q nucleosome (147 bp 601)
Kd ([4]; histone H4 K16Q (acetyl mimic), DNA unmodified): 1400 nM
